Results reported in patent US7919262B2, “14-3-3 proteins for diagnosis of Parkinson's disease” (The UAB Research Foundation, priority 2007, dated 2011).

Columns and labels:
[1] = tested on: SK-N-BE(2)-M17 (M17) cells; assay: Rotenone toxicity in stably transfected cell lines, LDH release; assay type: cell-based; conditions: stable overexpression, 48 hours; for protection against rotenone toxicity (LDH release): rotenone at varying concentrations
Protocol: Cell lines stably-transfected with either 14-3-3θ or empty vector were treated with varying concentrations of rotenone (0-25 μM) for 24 hours (FIG. 6A), 30 hours (FIG. 6B), or 48 hours (FIG. 6C). Cell death was assayed by LDH release into the culture media. LDH release into media was normalized to total LDH release for each well. […] Rater was blind to experimental condition. n=8 for each experimental condition. *p<0.05, ***p<0.001 (Bonferroni's multiple comparison test).
(§1) M17 cell lines stably-transfected with either a 14-3-3 isoform or empty vector were treated with varying concentrations of rotenone (0-25 μM) for 48 hours. Cell death was assayed by LDH release into the culture media. LDH release into media was normalized to total LDH release for each well. […] Results reflect two to three independent experiments with at least two replicates per experiment. *p<0.05, **p<0.01, ***p<0.001 (Bonferroni's multiple comparison test).
Additional studies were performed to evaluate the effect of 14-3-3 polypeptide isoforms in mammalian cells. In these studies, cDNA clones for the 14-3-3 polypeptide β, γ, ε, η, θ, and σ isoforms were subcloned into the mammalian expression vector pcDNA 3.1/V5/His (Invitrogen). The polypeptide expressed from this vector contains the particular 14-3-3 isoform with a V5 and a His6 tag at the C-terminal end. […] SK-N-BE(2)-M17 (M17) cells, a dopaminergic-producing human neuroblastoma cell line, were transfected with each isoform or empty vector using Superfect, and stably-transfected cells were selected for in the presence of G418.
The M17 14-3-3θ clones were examined for their resistance to rotenone (0-25 μM). M17 cell lines stably transfected with either 14-3-3θ or empty vector were treated with rotenone for 24 (FIG. 6A), 30 (FIG. 6B) or 48 hours (FIG. 6C). Cell death was assayed by […] (LDH) release into the culture media using the LDH assay kit from Roche. LDH release into media was normalized to total LDH release for each well. Results reflect three independent experiments with at least two replicates per experiment.
Stable M17 cell lines overexpressing these other isoforms were treated with rotenone at varying concentrations, and then cell death was assayed at 48 hours by LDH release. […]

H4 cells = assay: α-syn toxicity assay, adenylate kinase released into the media; assay type: cell-based; conditions: co-transfected with wildtype α-syn; 24 hours after transfection; vs empty vector
Protocol: Briefly, H4 cells were transfected with wildtype α-syn and each of the 14-3-3 polypeptide isoforms or empty vector controls as discussed above. Twenty-four hours after transfection, cell death was assayed by adenylate kinase activity in the media (n=4, *p<0.05, **p<0.01, ***p<0.001).
Primers against each of the human 14-3-3 isoforms were designed using Primer3. Primers against 14-3-3β (NM_018753) were 5′ […] 3′ (forward; SEQ ID NO. 9) and 5′ […] 3′ (reverse; SEQ ID NO. 10). Primers against 14-3-3ε (NM_009536) were 5′ […] 3′ (forward; SEQ ID NO. 11) and 5′ […] 3′ (reverse; SEQ ID NO. 12). Primers against 14-3-3γ (NM_018871) were 5′ […] 3′ (forward; SEQ ID NO. 13) and 5′ […] 3′ (reverse; SEQ ID NO. 14). Primers against 14-3-3η (NM_011738) were 5′ […] 3′ (forward; SEQ ID NO. 15) and 5′ […] 3′ (reverse; SEQ ID NO. 16). Primers against 14-3-3θ (NM_011739) were 5′ […] 3′ (forward; SEQ ID NO. 17) and 5′ […] 3′ (reverse; SEQ ID NO. 18). Primers against 14-3-3σ (NM_018754) were 5′ […] 3′ (forward; SEQ ID NO. 19) and 5′ […] 3′ (reverse; SEQ ID NO. 20). Primers against 14-3-3ζ(NM_011740) were 5′ […] 3′ (forward; SEQ ID NO. 21) and 5′ […] 3′ (reverse; SEQ ID NO. 22). Primers against GAPDH were 5′ tggtgaagcaggeatctga 3′ (forward; SEQ ID NO. 23) and 5′ […] […] All cells stained for α-syn were scored as positive or negative for α-syn aggregates, with the rater blind to experimental condition. • α-syn toxicity assay H4 cells were transfected with α-syn and either empty vector control or a 14-3-3 isoform using Superfect transfection reagent (Qiagen). 24 hours after transfection, toxicity was measured by the amount of adenylate kinase released into the media using the ToxiLight™ kit (Cambrex). • Creation of stable cell lines Each 14-3-3 isoform was subcloned into the mammalian expression vector mcDNA3.1/V5-His (Invitrogen). […] Protein concentrations of supernatants were determined by the bicinchoninic acid assay (BCA; Pierce, Rockford, Ill.). […]

M17 cells = assay: MPP+ toxicity in stably transfected cell lines, LDH release; assay type: cell-based, human; conditions: stable overexpression; MPP+ 0-10 mM; 24 hours
Protocol: as §1, with “Cell” for “M17 cell”, “MPP+” for “rotenone (0-25 μM)”, “24” for “48”, “well. Lines overexpressing 14-3-3θ (FIG. 9A), 14-3-3ε (FIG. 9B), or 14-3-3γ (FIG. 9C) were more resistant to MPP+ in a dose-dependent manner compared to control stable cells.” for “well.”, “experiment.” for “experiment. *p<0.05,”
The 14-3-3 expressing M17 clones were also tested for resistance to the neurotoxin 1-methyl-4-phenylpyridinium ion (MPP+), which is a metalbolite of 1-methyl-4-phenyl-1,2,3,6-tetrahydropyridine (MPTP). M17 cells expressing the 14-3-3 isoforms were prepared as described. M17 cells were treated with MPP+ (0-10 mM) for 24 hours (FIGS. 9A-G). Cell death was assayed by LDH release into the culture media as described above.
Primers against each of the human 14-3-3 isoforms were designed using Primer3. Primers against 14-3-3β (NM_018753) were 5′ […] 3′ (forward; SEQ ID NO. 9) and 5′ […] 3′ (reverse; SEQ ID NO. 10). Primers against 14-3-3ε (NM_009536) were 5′ […] 3′ (forward; SEQ ID NO. 11) and 5′ […] 3′ (reverse; SEQ ID NO. 12). Primers against 14-3-3γ (NM_018871) were 5′ […] 3′ (forward; SEQ ID NO. 13) and 5′ […] 3′ (reverse; SEQ ID NO. 14). Primers against 14-3-3η (NM_011738) were 5′ […] 3′ (forward; SEQ ID NO. 15) and 5′ […] 3′ (reverse; SEQ ID NO. 16). Primers against 14-3-3θ (NM_011739) were 5′ […] 3′ (forward; SEQ ID NO. 17) and 5′ […] 3′ (reverse; SEQ ID NO. 18). Primers against 14-3-3σ (NM_018754) were 5′ […] 3′ (forward; SEQ ID NO. 19) and 5′ […] 3′ (reverse; SEQ ID NO. 20). Primers against 14-3-3ζ(NM_011740) were 5′ […] 3′ (forward; SEQ ID NO. 21) and 5′ […] 3′ (reverse; SEQ ID NO. 22). Primers against GAPDH were 5′ tggtgaagcaggeatctga 3′ (forward; SEQ ID NO. 23) and 5′ […] 3′ (reverse; SEQ ID NO. 24) and were used to normalize PCR results. • α-syn aggregation assay H4 cells were transfected with synphilin, α-syn/green fluorescent protein (synT), and either empty vector control or a 14-3-3 isoform using Superfect transfection reagent (Qiagen). 24 hours after transfection, cells were fixed with 4% paraformaldehyde and immunostained with a monoclonal antibody against α-syn (BD Transduction) and a secondary Alexa 488-conjugated goat anti-mouse antibody (Molecular Probes). All cells stained for α-syn were scored as positive or negative for α-syn aggregates, with the rater blind to experimental condition. • α-syn toxicity assay H4 cells were transfected with α-syn and either empty vector control or a 14-3-3 isoform using Superfect transfection reagent (Qiagen). 24 hours after transfection, toxicity was measured by the amount of adenylate kinase released into the media using the ToxiLight™ kit (Cambrex). • Creation of stable cell lines Each 14-3-3 isoform was subcloned into the mammalian expression vector mcDNA3.1/V5-His (Invitrogen). BE(2)-M17 cells were transfected with each isoform or empty vector using Superfect, and stably-transfected cells were selected for in the presence of G418. […] Protein concentrations of supernatants were determined by the bicinchoninic acid assay (BCA; Pierce, Rockford, Ill.). […]

Row | Molecule | protection against rotenone toxicity (LDH release) [1] | effect on α-syn dependent cell death (adenylate kinase activity in the media) (H4 cells) | rotenone-induced cell death, % of that in control cells ([1]; 1 μM rotenone, LDH release) | protection against MPP+ toxicity (LDH release) (M17 cells)
1 | 14-3-3η: 14-3-3 polypeptide η isoform, overexpressed from expression vector (protein, UniProt Q04917 2-246, looked up) 14-3-3 protein eta: GDREQLLQRARLAEQAERYDDMASAMKAVTELNEPLSNEDRNLLSVAYKNVVGARRSSWRVISSIEQKTMADGNEKKLEKVKAYREKIEKELETVCNDVLSLLDKFLIKNCNDFQYESKVFYLKMKGDYYRYLAEVASGEKKNSVVEASEAAYKEAFEISKEQMQPTHPIRLGLALNFSVFYYEIQNAPEQACLLAKQAFDDAIAELDTLNEDSYKDSTLIMQLLRDNLTLWTSDQQDEEAGEGN | did not provide any protection | – | – | –
2 | 14-3-3σ: 14-3-3 polypeptide σ isoform, overexpressed from expression vector (protein, UniProt P31947 1-248, looked up) 14-3-3 protein sigma: MERASLIQKAKLAEQAERYEDMAAFMKGAVEKGEELSCEERNLLSVAYKNVVGGQRAAWRVLSSIEQKSNEEGSEEKGPEVREYREKVETELQGVCDTVLGLLDSHLIKEAGDAESRVFYLKMKGDYYRYLAEVATGDDKKRIIDSARSAYQEAMDISKKEMPPTNPIRLGLALNFSVFHYEIANSPEEAISLAKTTFDEAMADLHTLSEDSYKDSTLIMQLLRDNLTLWTADNAGEEGGEAPQEPQS | did not provide any protection | protective effects | – | –
3 | 14-3-3β: 14-3-3 polypeptide β isoform, overexpressed from expression vector (protein, UniProt P31946 1-246, looked up) 14-3-3 protein beta/alpha: MTMDKSELVQKAKLAEQAERYDDMAAAMKAVTEQGHELSNEERNLLSVAYKNVVGARRSSWRVISSIEQKTERNEKKQQMGKEYREKIEAELQDICNDVLELLDKYLIPNATQPESKVFYLKMKGDYFRYLSEVASGDNKQTTVSNSQQAYQEAFEISKKEMQPTHPIRLGLALNFSVFYYEILNSPEKACSLAKTAFDEAIAELDTLNEESYKDSTLIMQLLRDNLTLWTSENQGDEGDAGEGEN | some protection | – | 75% | did not show any significant protection
